From the supplement of paper PMC9170038

Tested on: MS2 coat protein
Experiment: apparent KD of MS2 coat protein; designed switch direction (-1 OFF switch, 1 ON switch): -1; higher = weaker reporter binding
In short: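 An oligonucleotide input, 200 uM small-molecule ligand, or no input was present during titration of SNAP-549-labelled MS2 coat protein, which was doubled from 0.7 or 1.5 nM to 3 µM. Designed RNA switches had been transcribed on Illumina chips by stalled E. coli RNA polymerase. Apparent KD per design is the median over clusters of curves fitted to normalised cluster fluorescence.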

[1] = Eterna round: R95, input ligand: microRNA oligo, concentration not stated
[2] = Eterna round: R95, input ligand: FMN 200 uM
[3] = Eterna round: R95, input ligand: none
[4] = input ligand: microRNA oligo, concentration not stated

Sequence | apparent KD of MS2 coat protein [1] [nM] | apparent KD of MS2 coat protein [2] [nM] | apparent KD of MS2 coat protein [3] [nM] | apparent KD of MS2 coat protein (input ligand: FMN 200 uM) [nM] | apparent KD of MS2 coat protein [4] [nM] | apparent KD of MS2 coat protein (input ligand: none) [nM]
CCAGGCUGUGUGAGGAUAUGCUGGUCCUUGGAUCAGCAGAAGGCACAUGAGGAUCACCCAUGUGAAUAGCUUGG [JL bmx4 3.26] (puzzle: Brourd's mod of Exclusion 4) | 15.8 |  |  |  |  | 
GUGUAACUACACGGGCUCAACAUGAGGAUCACCCAUGUCAUACACGCAAGCUCUUUGCUUGUCUUAUCUGUCCGUGA [Erriusti] (puzzle: Sensor v3, turn-off variant 1) | 16.6 | 16.8 | 14.5 |  |  | 
AAAAUGCAAGGAUAUACAUAGAUCCGACCUACUUAAAACAAACAUGAGGAUCACCCAUGUAGAAGGUGCCAAAA [Raxerebiti] (puzzle: Exclusion 2) | 23.7 | 44.9 | 25.5 |  |  | 
GCAGGUUAAGUCAGGAUAUACCUAUGGAUACAUAGGUAGAAGGGACAUGAGGAUCACCCAUGUGGCUCACCUGC [Fiskers BMX 4 - 60] (puzzle: Brourd's mod of Exclusion 4) | 21.6 |  |  |  |  | 
UUAUUAUAUGAAGGAUAUACUUAACAUGAGGAUCACCCAUGUGGUGUUGUGAGUGAGUGAGUUUAGUAGAAGGUCAAUUAUUUU [JMF's solution 28] (Eterna round: R96, puzzle: Exclusion NG 2) |  |  |  | 833 | 287 | 335
CGAUGUUAUGUCAGGAUAUACAUUGCGAAAGCAAUGUAGAAGGGACAUGAGGAUCACCCAUGUCCUAACCAUCG [Omei A 3] (puzzle: Brourd's mod of Exclusion 4) | 12.7 |  |  |  |  | 
CGGCAUGUCUGAGGAUAUCUGCACGUUUAGUGCAGAGAAGGCAGAACAUGAGGAUCACCCAUGUAGAUCAUUAACCGAUUAAUU [ENG1/7-A2] (Eterna round: R96, puzzle: Exclusion NG 1) |  |  |  |  | 182 | 
GAUUCACAUGACUGUCUAUACAUGAGGAUCACCCAUGUUUGUUUUUAUUUUUUUUUGCUUUUUAGUCGUCUUAUUAU [1 hard RNA] (Eterna round: R97, puzzle: Sensor, turn-off variant 1) |  |  |  | 37.1 |  | 35.2
UAGCUUUAUGUUAGGAUAUUCGCGCAUAUACUGCCGAAGAAGGAACAUGAGGAUCACCCAUGUACACGCCUAUG [Eternabot (L1) Solution 60] (Eterna round: R97, puzzle: Brourd's mod of Exclusion 4) |  |  |  | 81.1 |  | 20.9
ACUUUUAGUGGUCAAACUCACAUGAGGAUCACCCAUGUUUACAGGCUUAGGUGCUUGUCUUAUACUAAGGUUUACCG [Eternabot (L1) Solution 44] (Eterna round: R97, puzzle: Sensor, turn-off variant 1) |  |  |  | 96.9 |  | 122
UAAAGCGUAGGAUAUACAUUCAUGAGCACCACCCGGUGCACACAUGAGGAUCACCCAUGUAGAAGGAUGCUACG [Eternabot (Original) Solution 49] (Eterna round: R97, puzzle: Exclusion 2) |  |  |  | 14.6 |  | 17.6
AAGCAGUCAGGAUAUCGUUAAUUUAGUUGUUUGUAUUAGUUCGAGAAGGGACAUGAGGAUCACCCAUGUAUGAA [Ex4 #42] (Eterna round: R97, puzzle: Exclusion 4) |  |  |  | 51.5 |  | 48.3
GAAGAAGAGAGAAUAGAAAACAUGAGGAUCACCCAUGUGAGAAGAUGAGGGUGUAAUAGGCUUUUUGCUCGUCUUAU (puzzle: Sensor v3, turn-off variant 1) | 94.4 | 42.7 | 56 |  |  | 
GCCAGAGCAGGAUAUCUAAUAUGUCACAUGAGGAUCACCCAUGUCCAGCGAAAGCUGGAGGGAGAAGGGCUCUGGC [Fiskers Ex 5 - 21] (puzzle: Exclusion 5) | 51.8 |  |  |  |  | 
AAAAGCAAGCAAAGAUUCUACAUGAGGAUCACCCAUGUGCUCGUCUUAUAAAGUACUAUCACGAAAGUGAUAGUACA [Sensor 3, v1 - 42] (puzzle: Sensor v3, turn-off variant 1) | 142 | 26 | 19.7 |  |  | 
GCUAGAGCAGGAUAUUCAAAACCUCACAUGAGGAUCACCCAUGUGGCCGAAAGGCCGGGAGGAGAAGGGCUCUAGC [Mat - Exclusion 5 - Eli mod - D84] (Eterna round: R96, puzzle: Exclusion 5) |  |  |  | 42.4 | 14.3 | 19.4

Sequence | apparent KD of MS2 coat protein [1] [nM] | apparent KD of MS2 coat protein [2] [nM] | apparent KD of MS2 coat protein [3] [nM] | apparent KD of MS2 coat protein (input ligand: FMN 200 uM) [nM] | apparent KD of MS2 coat protein [4] [nM] | apparent KD of MS2 coat protein (input ligand: none) [nM]
UUAAUGGCUGUGAGGAUAUCGGAUAGAUAGAUAUUCGAGAAGGCACAUGAGGAUCACCCAUGUGUGAUUAGAGA [Brourd's EX4 #63] (Eterna round: R97, puzzle: Brourd's mod of Exclusion 4) |  |  |  | 130 |  | 26
AAACCCUGAGGAUAUACAUAACAACAAAGCCUCACGUGCCAACAUGAGGAUCACCCAUGUAGAAGGCAGGCCAA [Isananra] (puzzle: Exclusion 2) | 12.6 |  |  |  |  | 
AAGAGGUCAGGAUAUACAGGAAGAGAGAGAAGUAGAGGGUAACAUGAGGAUCACCCAUGUAGAAGGGACUAAGA [JR_Exclu2_Sub071] (puzzle: Exclusion 2) | 48.5 | 67.9 | 63.1 |  |  | 
AAUCCACAUGAGGAUCACCCAUGUGAGGAUAUGAUACUAUGUACUUCGGUACAUAGUAUCAGAAGGCACAAAGG [Ex1-3: 52] (puzzle: Exclusion 1) | 56 |  |  |  |  | 
AAGUACCGUCACGAUAGUGAUGGUACAACAAGCAGUGACACAUGAGGAUCACCCAUGUCCUCAAUUGCUCGUCUUAU [Sensor 3 - 76] (puzzle: Sensor v3, turn-off variant 2) | 383 | 179 | 156 |  |  | 
AAACUGAGGCAAAGCUUUAGUCGUACAUGAGGAUCACCCAUGUAGGAUAUGGUAGGCUUUGCUUACCAGAAGGACAGAGUGAUC [Mat - Exclusion NG 3 - Mod of JL - D56] (Eterna round: R96, puzzle: Exclusion NG 3) |  |  |  | 235 | 103 | 110
UUACCAUGCCGCCUAAUAGCUUUUUGCUCGUCUUAUAUUACAUGAGGAUCACCCAUGUAAAACAUGUGGCGUGACCU [JL ViennaUCT Maridi mod 1] (puzzle: Sensor v3, turn-off variant 2) | 112 | 79.8 | 87.3 |  |  | 
UUAUUAAUUAAUAUUAUAAGAUCACAUGAGGAUCACCCAUGUCAGGAUAUCAGCUCGAUUAGAGCUGAGAAGGGACAAAUAAUA [ExNG3/15-B1] (Eterna round: R96, puzzle: Exclusion NG 3) |  |  |  | 1450 | 157 | 268
ACGACCUGAGGAUAUACAUGAGGAUCACCCAUGUAUGCAACAGCCGGGAAAUCCCGAUGUAGAAGGCAGGAAAA [Eternabot (Original) Solution 26] (Eterna round: R97, puzzle: Exclusion 3) |  |  |  | 252 |  | 32.2
AACCAGCGAGGAUAUUGUUGAUAAAACAUGAGGAUCACCCAUGUCACGUGAUCUUCCCAACAAGAAGGUGCACUAA [Xeoratdior] (Eterna round: R97, puzzle: Exclusion 5) |  |  |  | 652 |  | 301
GAAGAGACAGGAUAUACAUGAGGAUCACCCAUGUGAGGAGGUUGGAGGCGGAGGAGGUGUAGAAGGGUCAAAGA [JR_Exclu3_Sub021] (puzzle: Exclusion 3) | 29.7 | 41.6 | 38.8 |  |  | 
GCCUGGGCAGGAUAUACAUGAGGAUCACCCAUGUCUGUUGACCGAACUCCGGAUAUAUGUAGAAGGGUCGCAGA [Eternabot (L1) Solution 100] (Eterna round: R97, puzzle: Exclusion 3) |  |  |  | 55.1 |  | 49.8
ACUGGUCGAGGAUAUACGAUCGUGCUUCGGCACGUAAGAUCACAUGAGGAUCACCCAUGUAGAAGGCGACCAGU [Mod 4 - Jieux - Exclusion 2] (Eterna round: R97, puzzle: Exclusion 2) |  |  |  | 246 |  | 35.3
AGCUAGAUAGGAUAUGCCCGGGAUAACAUGAGGAUCACCCAUGUGACCGAUUCAUGUCCUGCAGAAGGGUUUGGGA [Mod of ViennaUCT 7 - Jieux - Exclusion 5] (Eterna round: R97, puzzle: Exclusion 5) |  |  |  | 15.1 |  | 12.7
AGAUGGCGAGGAUAUACAUGAGGAUCACCCAUGUGAGAUAAAUAAGUGAGGAAGAAAAGUAGAAGGCGCUGUCA [Mat - Exclusion 3 - Mod of Salish D14] (puzzle: Exclusion 3) | 74.3 |  |  |  |  | 
